Measured values published in patent US20200239579A1 (Genmab, published 2020).

T1: human PD-L2 (full length, on CHO cells) (human, UniProt Q9BQ51 20-273)
T1 construct: whole, on cells; also called CHO-PD-L2 cells
T1 sequence (looked up): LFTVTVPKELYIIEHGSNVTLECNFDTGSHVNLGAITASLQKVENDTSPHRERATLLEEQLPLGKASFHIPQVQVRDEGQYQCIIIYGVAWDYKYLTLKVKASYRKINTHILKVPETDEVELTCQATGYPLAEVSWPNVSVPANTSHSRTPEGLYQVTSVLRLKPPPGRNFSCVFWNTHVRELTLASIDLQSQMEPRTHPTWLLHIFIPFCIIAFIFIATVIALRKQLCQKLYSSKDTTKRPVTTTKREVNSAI


What was measured:
[1] = target: T2, PDLoneECDHisCtag (human, UniProt Q9NZQ7 19-238); test: BLI cross-block, second antibody on PDLoneECDHisCtag held by immobilised 547; plain = non-blocking
T2 construct: Expressed in HEK-293F cells; theoretical molecular weight 29 kDa; also called recombinant human PD-L1 ECD; human PD-L1 (BLI); not shown: C-terminal His-tag; C-tag
T2 sequence (Q9NZQ7 19-238, form in doubt): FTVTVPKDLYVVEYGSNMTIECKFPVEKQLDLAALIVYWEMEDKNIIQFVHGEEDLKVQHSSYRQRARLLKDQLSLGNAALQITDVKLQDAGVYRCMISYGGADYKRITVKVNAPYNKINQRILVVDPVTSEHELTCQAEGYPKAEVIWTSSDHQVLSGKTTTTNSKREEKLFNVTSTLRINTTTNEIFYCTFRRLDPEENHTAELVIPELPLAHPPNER
Procedure: (§1) Antibody cross-block testing was performed using biolayer interferometry (BLI) on an Octet HTX instrument (ForteBio). Antibodies (20 μg/ml in 10 mM sodium acetate buffer pH 6.0 (ForteBio)) were immobilized on Amine-Reactive 2nd Generation (AR2G) biosensors (ForteBio) according to the instructions of the manufacturer. After a baseline (50 s) in Sample Diluent (ForteBio), biosensors containing immobilized antibodies were loaded for 500 s with PDLoneECDHisCtag (100 nM or 2.7 μg/ml), after which the association response of a second antibody (10 μg/ml) was followed for 500 s. Biosensors were regenerated by using 3 times 5 s alternating exposures to 10 mM glycine pH 2.5 and Sample Diluent. The experiment was repeated with a new set of second antibodies starting from the baseline step. Each biosensor was used 6 times. The experiment was performed at 30° C. using a shaker speed of 1000 rpm. Data was analyzed using Data Analysis Software v9.0.0.12 (ForteBio). The Y-axis was aligned to the association step and Savitzky-Golay filtering was applied. The average buffer response was subtracted from the association response of the second antibody in order to correct for the dissociation of PDLoneECDHisCtag from the immobilized antibody. The corrected association responses were plotted in a matrix format.

[2] = target: T2, PDLoneECDHisCtag; test: BLI cross-block, second antibody on PDLoneECDHisCtag held by immobilised 632; bold = blocking
Procedure: as §1

[3] = target: T2, PDLoneECDHisCtag; test: BLI cross-block, second antibody on PDLoneECDHisCtag held by immobilised 511-LC33S; bold = blocking
Procedure: as §1

[4] = target: T2, PDLoneECDHisCtag; test: BLI cross-block, second antibody on PDLoneECDHisCtag held by immobilised 421-LC91S; plain = non-blocking
Procedure: as §1

[5] = target: T2, PDLoneECDHisCtag; test: BLI cross-block, second antibody on PDLoneECDHisCtag held by immobilised 516; plain = non-blocking
Procedure: as §1

[6] = target: T2, PDLoneECDHisCtag; test: BLI cross-block, second antibody on PDLoneECDHisCtag held by immobilised 476-N101Q-LC33S; bold = blocking
Procedure: as §1

[7] = target: T3, human PD-L1 (full length, on cells) (human, UniProt Q9NZQ7 19-290); test: flow cytometry on MDA-MB-231 cells, PE anti-human IgG secondary, MFI (PE)
T3 construct: The entry holds the signal peptide; also called CD274; B7H1
T3 sequence (Q9NZQ7 19-290 limits assumed): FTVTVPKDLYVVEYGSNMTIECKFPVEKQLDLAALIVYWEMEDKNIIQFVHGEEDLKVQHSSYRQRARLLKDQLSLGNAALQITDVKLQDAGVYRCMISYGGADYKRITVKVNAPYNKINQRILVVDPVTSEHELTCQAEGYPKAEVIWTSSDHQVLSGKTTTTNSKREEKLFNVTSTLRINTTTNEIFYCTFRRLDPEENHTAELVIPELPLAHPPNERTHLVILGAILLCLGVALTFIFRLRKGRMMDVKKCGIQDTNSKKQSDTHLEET
Procedure: (§2) Cells (3-5×10⁴ cells/well) were incubated in polystyrene 96-well round-bottom plates (Greiner bio-one, cat. no. 650101) with serial dilutions of antibodies (range 0.0001 to 10 μg/mL in 5-fold dilution steps) in 50 μL PBS/0.1% BSA/0.02% azide (staining buffer) at 4° C. for 30 min.
(§3) After washing twice in staining buffer, cells were incubated in 50 μL secondary antibody at 4° C. for 30 min. As a secondary antibody, R-Phycoerythrin (PE)-conjugated goat-anti-human IgG F(ab′)₂ (Cat. no. 109-116-098, Jackson ImmunoResearch Laboratories, Inc., West Grove, Pa.) diluted 1:500 in staining buffer, was used for all experiments. Next, cells were washed twice in staining buffer, re-suspended in 20 μL staining buffer and analyzed on an iQue screener (Intellicyt Corporation, USA). Binding curves were analyzed using non-linear regression (sigmoidal dose-response with variable slope) using GraphPad Prism V75.04 software (GraphPad Software, San Diego, Calif., USA).

[8] = target: T1, human PD-L2 (full length, on CHO cells); test: flow cytometry on CHO cells expressing human PD-L2
Procedure: as §2, §3
A PE-conjugated PD-L2 specific antibody (Mylteni, clone MIH18; cat. no. 130-098-651) was used as positive control.

[9] = target: T4, cynomolgus monkey PD-L1 (full length, on CHO cells) (cynomolgus monkey (Macaca fascicularis), UniProt G7PSE7 19-290); test: flow cytometry on CHO cells transfected with cynomolgus PD-L1, PE anti-human IgG secondary, MFI (PE)
T4 construct: whole, on cells; also called PDL1 Mf; cynomolgus PD-L1
T4 sequence (G7PSE7 entry or part of it): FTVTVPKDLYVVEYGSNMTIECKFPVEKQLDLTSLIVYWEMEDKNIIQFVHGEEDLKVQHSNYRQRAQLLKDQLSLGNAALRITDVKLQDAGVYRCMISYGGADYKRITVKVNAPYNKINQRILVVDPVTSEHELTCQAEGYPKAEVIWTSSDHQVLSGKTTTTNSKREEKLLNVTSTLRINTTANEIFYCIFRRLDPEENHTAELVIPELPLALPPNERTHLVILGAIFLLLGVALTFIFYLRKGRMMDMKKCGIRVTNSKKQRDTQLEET
Procedure: as §2, §3
Binding to CHO cells expressing cynomolgus PD-L1 was determined by flow cytometry using a method as described above.

[10] = target: T2, PDLoneECDHisCtag; test: BLI cross-block, second antibody on PDLoneECDHisCtag held by immobilised 632; plain = non-blocking
Procedure: as §1

[11] = target: T2, PDLoneECDHisCtag; test: BLI cross-block, second antibody on PDLoneECDHisCtag held by immobilised MPDL; bold = blocking
Procedure: as §1

[12] = target: T2, PDLoneECDHisCtag; test: BLI cross-block, second antibody on PDLoneECDHisCtag held by immobilised 547; bold = blocking
Procedure: as §1

[13] = target: T2, PDLoneECDHisCtag; test: BLI cross-block, second antibody on PDLoneECDHisCtag held by immobilised 338; bold = blocking
Procedure: as §1

[14] = target: T2, PDLoneECDHisCtag; test: BLI cross-block, second antibody on PDLoneECDHisCtag held by immobilised MEDI; bold = blocking
Procedure: as §1

[15] = target: T2, PDLoneECDHisCtag; test: BLI cross-block, second antibody on PDLoneECDHisCtag held by immobilised 321; bold = blocking
Procedure: as §1

[16] = target: T2, PDLoneECDHisCtag; test: BLI cross-block, second antibody on PDLoneECDHisCtag held by immobilised 511-LC33S; plain = non-blocking
Procedure: as §1

[17] = target: T2, PDLoneECDHisCtag; test: BLI cross-block, second antibody on PDLoneECDHisCtag held by immobilised 516; bold = blocking
Procedure: as §1

[18] = target: T2, PDLoneECDHisCtag; test: BLI cross-block, second antibody on PDLoneECDHisCtag held by immobilised 476-N101Q-LC33S; plain = non-blocking
Procedure: as §1

[19] = target: T2, PDLoneECDHisCtag; test: BLI cross-block, second antibody on PDLoneECDHisCtag held by immobilised 421-LC91S; bold = blocking
Procedure: as §1

Binder	association response of the second antibody [1] [nm]	association response of the second antibody [2] [nm]	association response of the second antibody [3] [nm]	association response of the second antibody [4] [nm]	association response of the second antibody [5] [nm]	association response of the second antibody [6] [nm]	binding result [7]	binding result [8]	EC50 (read off the curve) [9] [µg/mL]	association response of the second antibody [10] [nm]	association response of the second antibody [11] [nm]	association response of the second antibody [12] [nm]	association response of the second antibody [13] [nm]	association response of the second antibody [14] [nm]	association response of the second antibody [15] [nm]	association response of the second antibody [16] [nm]	association response of the second antibody [17] [nm]	association response of the second antibody [18] [nm]	association response of the second antibody [19] [nm]
IgG1-632-FEAR (antibody, V domains shown) VH: QVQLVESGGGLVKPGGSLRLSCAASGFTFSDYYMSWIRQAPGKGLEWVSYIGSSSNTIYYADSVKGRFTISRDNAKNSLYLQMNSLRAEDTAVYSCARDRVKYGSPGSLFDYWGQGTLVTVSS VL: SYELTQPPSVSVSPGQTARITCSGDALPKKYAFWYQQKSGQAPVLVIYEDSKRPSGIPERFSGSSSGTMATLTISGAQVEDEADYYCYSTASSGDHRVFGGGTKLTVL	0.7	0	0	0.2	1.1	0													
bsIgG1-huCD3-H1L1-FEAL×511-LC33S-FEAR (bispecific antibody) heavy 1: not shown VL: not shown heavy 2: QVQLVQSGSELKKPGASVMVSCKASGYTFTSYVMNWVRQAPGQGLEWMGWINSYTGNPTSAQGFTGRFVFSFDTSVNTAYLQISSLKAEDTAVYYCARGYCTSTSCYLDYWGQGTLVTVSSASTKGPSVFPLAPSSKSTSGGTAALGCLVKDYFPEPVTVSWNSGALTSGVHTFPAVLQSSGLYSLSSVVTVPSSSLGTQTYICNVNHKPSNTKVDKRVEPKSCDKTHTCPPCPAPEFEGGPSVFLFPPKPKDTLMISRTPEVTCVVVAVSHEDPEVKFNWYVDGVEVHNAKTKPREEQYNSTYRVVSVLTVLHQDWLNGKEYKCKVSNKALPAPIEKTISKAKGQPREPQVYTLPPSREEMTKNQVSLTCLVKGFYPSDIAVEWESNGQPENNYKTTPPVLDSDGSFFLYSRLTVDKSRWQQGNVFSCSVMHEALHNHYTQKSLSLSPGK light: SYELTQPPSVSVSPGHTARITCSGDALPKKYASWFQQKSGQAPVLVIYEDSKRPSGIPERFSGSTSGTMATLTISGAQVEDETDYYCYSADTSGTHRVFGGGTKLTVLGQPKAAPSVTLFPPSSEELQANKATLVCLISDFYPGAVTVAWKADSSPVKAGVETTTPSKQSNNKYAASSYLSLTPEQWKSHRSYSCQVTHEGSTVEKTVAPTECS							binds	no binding	~0.3										
IgG1-476-N101Q-LC33S-FEAR (antibody, V domains shown) VH: EVQMLESGGGLVQPGGSLRLSCAASGFTFRSYAMSWVRQAPGKGLEWVSGIGDSGGSTYHADSVKGRFTISRDNSKNTLYLQMNSLRAEDTAVYYCAKLGQSSGWYDHYYYYGMDVWGQGTTVTVSS VL: SYELTQPPSVSVSPGQTASITCSGDKLGNKYVSWFQQKPGQSPVLVIYRDSERPSGIPERFSGSNSGNTATLTISGTQAVDEADFYCQAWDSSTVVFGGGTKLTVL	0.8	0	0	0.4	1.2	0													
IgG1-421-LC91S-FEAR (antibody, V domains shown) VH: EVQLVESGGGLVQPGRSLRLSCAASGFTFDDYAMHWVRQGPGKGLEWVSGIRWNSGSMHYADSVKGRFTISRDNAKSSLYLQMNSLRAEDTALYYCARAPWYSGAWHPDYWGQGTLVTVSS VL: QSALTQPRSVSGSPGQSVTISCTGTSSDVGTYNYVSWYQQHPGKAPKLMIYDVIKRPSGVPDRFSGSKSGNTASLTLSGLQAEDEADYYCSSYAGTYTLLFGGGTKLTVL										0.6	0	0	0	0	0	0.6	-0.1	0.8	0
IgG1-321-FEAR (antibody, V domains shown) VH: EVQLVESGGGLVQPGGSLRLSCAASGFTFSSYWMSWVRQAPGKGLEWVANIKQDGNEKYYVDSVKGRFTISRDNAKNSLYVQMNSLRAEDTAVYYCARDLYYGSGTYPPFDYWGQGTLVTVSS VL: DIQMTQSPSTLSASVGDRVTITCRASQSISSWLAWYLQKPGKAPKLLIYKASSLESGVPSRFSGSGSGTEFTLTISSLQPDDFATYYCQQYHSSSYTFGQGTKLEIK			0		1.1					0.6	0	0	0	0	0				-0.1
